Earlier results as cited in article PMC3566329.

Assays:
[1] = molecular target: Methylamine dehydrogenase (quinone) (Paracoccus denitrificans) (UniProt P22619); experiment: single turnover kinetics
[2] = molecular target: preMADH (Paracoccus denitrificans) (UniProt P22619)

| Substance | Kd [1] | Kd [2] |
| --- | --- | --- |
| MauG (di-ferrous) (from UniProt Q51658) | 10.1 µM | – |
| MauG (from UniProt Q51658) | – | < 1.5 µM |
